Here are results for 14 molecules from patent US20120213804A1 (Pfizer, published 2012).

Where two headings read alike, the source gives them in different places.

The target in assay [1] is Fc-CD22 (UniProt P20273). Kind of assay: BIACORE, Fc-CD22 on CM5 chip; competitor G5/44 pre-bound. For orientation: In SPR one partner is held on a chip, and binding of the other changes the refractive index at the surface.
The target in assay [2] is Fc-CD22 (UniProt P20273). Kind of assay: BIACORE, Fc-CD22 on CM5 chip, no G5/44.
Assay [3] deals with T1, CD22mFc (UniProt P20273 20-687, limits assumed).
T1 construct: also called CD22-mFc constructs; not shown: mouse Fc (captured by anti-mouse Fc)
Kind of assay: Biacore 2000; CD22mFc captured via immobilized anti-mouse Fc, antibody in the soluble phase; column head '~KD nM'. The procedure: (§1) All binding measurements were performed in the BIACORE™ 2000 instrument (Pharmacia Biosensor AB, Uppsala, Sweden). The assay was performed by capture of CD22mFc via the immobilized anti-mouse Fc. The antibody was in the soluble phase. Samples, standard, and controls (50 μl) were injected over immobilized anti-mouse Fc followed by antibody in the soluble phase. After each cycle, the surface was regenerated with 50 μl of 40 mM HCl at 30 μl/min. The kinetic analysis was performed using the BIAevaluation 3.1 software (Pharmacia).

For assay [4], the target named is T1, CD22mFc. Kind of assay: BIACORE 2000, CD22mFc captured via anti-mouse Fc. As to the method: as §1
Assay [5] concerns the target T2, human CD22 on the surface of B cells (Ramos, RL, Daudi, Raji lymphoma cells; B cell lymphoma tissue) (human, UniProt P20273 20-847). Kind of assay: cell-based or functional assay.
Assay [6] has as its target T3, CD33 on CD22- CD33+ HL-60 leukemia cells (human, UniProt P20138 18-364).
T3 construct: whole, on cells
Kind of assay: flow cytometry. The text has this:
Purified human polyclonal IgG1 and IgG4 were also used as negative controls.
For orientation: Flow cytometry measures light scatter and fluorescence of single cells or particles in a stream.

Assay [7] addresses T1, CD22mFc. Kind of assay: SPR (BIACORE 2000), CD22mFc on CM5 chip, global 1:1 Langmuir fit with mass transfer. The procedure: (§2) Biosensor analyses were carried out using a BIACORE™ 2000 (BIAcore AB, Uppsala, Sweden). CD22mFc was covalently immobilized on the N-hydroxysuccinimide-activated carboxymethyl dextran-coated biosensor chip (CM5) using a standard amine-coupling chemistry at a protein density of approximately 2000 resonance units. […] After the binding phase, dissociation of the bound antibody was monitored by washing the chip with the HBS buffer over a 15 minute period. The antigenic surface was regenerated by washing the Biosensor chip with 15 μl of the regeneration buffer (10 mM NaOH and 200 mM NaCl) for 30 seconds, followed by a stabilization time of 2 minutes before the next cycle. Kinetic constants were calculated by nonlinear least square regression analysis using a 1:1 Langmuir binding curve fitting model and BIAevaluation program (version 3.0, BIAcore).

The target of assay [8] is T1, CD22mFc. Kind of assay: SPR (BIACORE 2000), CD22mFc immobilized on CM5 chip. As to the method: as §2
Assay [9] has as its target T2, human CD22 on the surface of B cells …. Kind of assay: cell-based or functional assay. The source holds these as a separate data set.
Assay [10] shares this target. Kind of assay: cell-based or functional assay. This is another data set of the same source.

T3 sequence (P20138 18-364): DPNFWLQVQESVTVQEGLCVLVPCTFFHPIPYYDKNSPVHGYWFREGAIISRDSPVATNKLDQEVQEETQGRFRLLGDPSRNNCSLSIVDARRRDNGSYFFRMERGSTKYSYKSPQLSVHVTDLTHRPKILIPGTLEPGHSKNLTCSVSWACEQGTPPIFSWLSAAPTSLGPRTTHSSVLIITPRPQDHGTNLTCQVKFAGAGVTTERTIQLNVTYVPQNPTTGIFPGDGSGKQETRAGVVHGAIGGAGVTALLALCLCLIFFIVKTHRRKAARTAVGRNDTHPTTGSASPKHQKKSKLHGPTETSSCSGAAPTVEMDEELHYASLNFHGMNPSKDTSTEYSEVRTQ

In the case of “anti-CD22 antibody BLCAM, HD239 (Santa Cruz Biotech)”, in the assay with Fc-CD22 [1], the Inhibition by G544 (%) is 91%; the Response 2 with G544 (combined response, RU) is 629 RU; the Response 3 (Response 2-1) (RU) was -81.8 RU; the Response 3 adjusted for OFF rate of G544 (RU) is 1.7 RU. In addition, in the assay with Fc-CD22 [2], the Binding of 2nd mAb without G544 adjusted for background (RU) is 19.3 RU.
For “anti-CD22 antibody SHCL-1, Leu 14 (Becton Dickinson)”, in that order: 69%, 580 RU, -74.5 RU, 9 RU and 29.3 RU.
For anti-CD22 antibody To 15 (Dako Corp), in that order: 7%, 1160 RU, 487 RU, 570 RU and 615 RU.
The corresponding values for anti-CD22 antibody 4 KB128 (Dako Corp) are 0%, 1340 RU, 652 RU, 736 RU and 739 RU.
In the case of anti-CD19 antibody BU12 (Celltech), in the assay with Fc-CD22 [1], the Inhibition by G544 (%) worked out at 0%; the Response 2 with G544 (combined response, RU) amounted to 603 RU; the Response 3 (Response 2-1) (RU) was -83.5 RU; the Response 3 adjusted for OFF rate of G544 (RU) turned out to be 0 RU.

B1: chimeric 5/44 variant K60R (antibody, V domains shown)
VH: EVQLQQSGTVLARPGASVKMSCKASGYRFTNYWIHWVKQRPGQGLEWIGGINPGNNYTTYRRNLKGKATLTAVTSASTAYMDLSSLTSEDSAVYYCTREGYGNYGAWFAYWGQGTLVTVSS
VL: DVVVTQTPLSLPVSFGDQVSISCRSSQSLANSYGNTFLSWYLHKPGQSPQLLIYGISNRFSGVPDRFTGSGSGTDFTLKISTIKPEDLGMYYCLQGTHQPYTFGGGTKLEIKR
notes: Human kappa / human gamma-4 constant regions; The position is as printed
What is called Kd is a measure of binding affinity in units of concentration. Read a low Kd as tighter binding. Regarding B1, in the assay with CD22mFc [3], the Kd was about 0.2 nM.

B2: chimeric 5/44 variant T57A (antibody, V domains shown)
VH: EVQLQQSGTVLARPGASVKMSCKASGYRFTNYWIHWVKQRPGQGLEWIGGINPGNNYATYKRNLKGKATLTAVTSASTAYMDLSSLTSEDSAVYYCTREGYGNYGAWFAYWGQGTLVTVSS
VL: DVVVTQTPLSLPVSFGDQVSISCRSSQSLANSYGNTFLSWYLHKPGQSPQLLIYGISNRFSGVPDRFTGSGSGTDFTLKISTIKPEDLGMYYCLQGTHQPYTFGGGTKLEIKR
notes: Human kappa / human gamma-4 constant regions; The position is as printed (CDR-H2, Kabat definition); also called construct T57A
For the molecule B2, in the assay with CD22mFc [3], the equilibrium dissociation constant (Kd) is about 0.07 nM. Moreover, the “affinity improvement compared to the chimeric 5/44 (fold)” value with CD22mFc [4] is about 5 fold.

B3: chimeric 5/44 variant N55Q (antibody, V domains shown)
VH: EVQLQQSGTVLARPGASVKMSCKASGYRFTNYWIHWVKQRPGQGLEWIGGINPGNQYTTYKRNLKGKATLTAVTSASTAYMDLSSLTSEDSAVYYCTREGYGNYGAWFAYWGQGTLVTVSS
VL: DVVVTQTPLSLPVSFGDQVSISCRSSQSLANSYGNTFLSWYLHKPGQSPQLLIYGISNRFSGVPDRFTGSGSGTDFTLKISTIKPEDLGMYYCLQGTHQPYTFGGGTKLEIKR
notes: as for B1
In the assay with CD22mFc [3], B3 showed a dissociation constant Kd of about 0.3 nM.

B4: CMC-544 (G5/44-NAc-gamma-calicheamicin DMH AcBut conjugate), preparation not specified (antibody, human IgG4 S228P, kappa, V domains shown)
VH: EVQLVQSGAEVKKPGASVKVSCKASGYRFTNYWIHWVRQAPGQGLEWIGGINPGNNYATYRRKFQGRVTMTADTSTSTVYMELSSLRSEDTAVYYCTREGYGNYGAWFAYWGQGTLVTVSS
VL: DVQVTQSPSSLSASVGDRVTITCRSSQSLANSYGNTFLSWYLHKPGKAPQLLIYGISNRFSGVPDRFSGSGSGTDFTLTISSLQPEDFATYYCLQGTHQPYTFGQGTKVEIKR
modifications: NAc-gamma calicheamicin DMH AcBut conjugated to the antibody; chain and residues not stated
notes: also called NAc-Gamma Calicheamicin DMH AcBut-G5/44 immunoconjugate
As for B4, the “killing of CD22+ target cells relative to the unconjugated drug” value in assay [5] was at least 10 times. Besides, the binding result in [6] is on record as “no binding”. Also, the Kd with CD22mFc [7] came to 0.2 nM.

B5: humanized anti-CD22 antibody G5/44 (antibody, human IgG4 S228P, kappa, V domains shown)
VH: EVQLVQSGAEVKKPGASVKVSCKASGYRFTNYWIHWVRQAPGQGLEWIGGINPGNNYATYRRKFQGRVTMTADTSTSTVYMELSSLRSEDTAVYYCTREGYGNYGAWFAYWGQGTLVTVSS
VL: DVQVTQSPSSLSASVGDRVTITCRSSQSLANSYGNTFLSWYLHKPGKAPQLLIYGISNRFSGVPDRFSGSGSGTDFTLTISSLQPEDFATYYCLQGTHQPYTFGQGTKVEIKR
notes: also called Humanized G5/44; gL1gH7
One may read the koff as the first-order rate constant of dissociation. High values mean fast dissociation, low ones slow dissociation. One may read the kon as the second-order rate constant of association. A low value points to slow association. For the molecule B5, the binding result in assay [6] is “no binding”. In the assay with CD22mFc [8], this molecule yielded a Ka of 7.9e+09 M⁻¹, a Kd of 0.13 nM, a koff of 2.8e-05 s⁻¹ and a kon of 220000 M⁻¹ s⁻¹. In the assay with CD22mFc [7], the Kd was found to be 0.235 nM.

B6: CMC-544 (21 µg/mg) (CMA-676 procedure) (antibody, human IgG4 S228P, kappa, V domains shown)
VH: EVQLVQSGAEVKKPGASVKVSCKASGYRFTNYWIHWVRQAPGQGLEWIGGINPGNNYATYRRKFQGRVTMTADTSTSTVYMELSSLRSEDTAVYYCTREGYGNYGAWFAYWGQGTLVTVSS
VL: DVQVTQSPSSLSASVGDRVTITCRSSQSLANSYGNTFLSWYLHKPGKAPQLLIYGISNRFSGVPDRFSGSGSGTDFTLTISSLQPEDFATYYCLQGTHQPYTFGQGTKVEIKR
modifications: NAc-gamma calicheamicin DMH AcBut conjugated, loading 21 µg/mg; chain and residues not stated
Consider B6, for which, in the assay with CD22mFc [8], the Ka was 8.1e+09 M⁻¹, the dissociation constant Kd came out at 0.12 nM, the koff worked out at 6.1e-05 s⁻¹ and the kon is 490000 M⁻¹ s⁻¹.

B7: CMC-544, CMA-676 process, loading 35 µg/mg (antibody, human IgG4 S228P, kappa, V domains shown)
VH: EVQLVQSGAEVKKPGASVKVSCKASGYRFTNYWIHWVRQAPGQGLEWIGGINPGNNYATYRRKFQGRVTMTADTSTSTVYMELSSLRSEDTAVYYCTREGYGNYGAWFAYWGQGTLVTVSS
VL: DVQVTQSPSSLSASVGDRVTITCRSSQSLANSYGNTFLSWYLHKPGKAPQLLIYGISNRFSGVPDRFSGSGSGTDFTLTISSLQPEDFATYYCLQGTHQPYTFGQGTKVEIKR
modifications: NAc-gamma calicheamicin DMH AcBut conjugated, loading 35 µg/mg; chain and residues not stated
Consider B7, for which, in [9], the “growth inhibition IC50, Daudi #1” value is 80 pM of calicheamicin; the “growth inhibition IC50, RL #1” value was 30 pM of calicheamicin; the “growth inhibition IC50, RL #2” value was 40 pM of calicheamicin; the “growth inhibition IC50, Raji #2” value is 520 pM of calicheamicin. For the same molecule, the “growth inhibition IC50, Ramos #1” value in assay [9] was 130 pM of calicheamicin. In addition, in assay [10], the “growth inhibition IC50, Daudi #1” value is 2.29 µg/mL of antibody; the “growth inhibition IC50, RL #1” value is 0.86 µg/mL of antibody; the “growth inhibition IC50, RL #2” value is 1.14 µg/mL of antibody; the “growth inhibition IC50, Raji #2” value was 14.9 µg/mL of antibody. Further, in assay [10], the “growth inhibition IC50, Ramos #1” value is 3.71 µg/mL of antibody.

B8: CMC-544 (87 µg/mg) (CMC-544 procedure) (antibody, human IgG4 S228P, kappa, V domains shown)
VH: EVQLVQSGAEVKKPGASVKVSCKASGYRFTNYWIHWVRQAPGQGLEWIGGINPGNNYATYRRKFQGRVTMTADTSTSTVYMELSSLRSEDTAVYYCTREGYGNYGAWFAYWGQGTLVTVSS
VL: DVQVTQSPSSLSASVGDRVTITCRSSQSLANSYGNTFLSWYLHKPGKAPQLLIYGISNRFSGVPDRFSGSGSGTDFTLTISSLQPEDFATYYCLQGTHQPYTFGQGTKVEIKR
modifications: NAc-gamma calicheamicin DMH AcBut conjugated, loading 87 µg/mg; chain and residues not stated
In the assay with CD22mFc [8], B8 gave a Ka of 6.6e+09 M⁻¹, a Kd of 0.15 nM, a koff of 6.9e-05 s⁻¹ and a kon of 460000 M⁻¹ s⁻¹.

B9: CMC-544, CMC-544 process, loading 65 µg/mg (antibody, human IgG4 S228P, kappa, V domains shown)
VH: EVQLVQSGAEVKKPGASVKVSCKASGYRFTNYWIHWVRQAPGQGLEWIGGINPGNNYATYRRKFQGRVTMTADTSTSTVYMELSSLRSEDTAVYYCTREGYGNYGAWFAYWGQGTLVTVSS
VL: DVQVTQSPSSLSASVGDRVTITCRSSQSLANSYGNTFLSWYLHKPGKAPQLLIYGISNRFSGVPDRFSGSGSGTDFTLTISSLQPEDFATYYCLQGTHQPYTFGQGTKVEIKR
modifications: NAc-gamma calicheamicin DMH AcBut conjugated, loading 65 µg/mg; chain and residues not stated
Take B9: in [9], the “growth inhibition IC50, Daudi #1” value was 21 pM of calicheamicin; the “growth inhibition IC50, RL #1” value is 6 pM of calicheamicin; the “growth inhibition IC50, RL #2” value is 12 pM of calicheamicin; the “growth inhibition IC50, Raji #1” value was 500 pM of calicheamicin. Besides, in [9], the “growth inhibition IC50, Raji #2” value is 560 pM of calicheamicin; the “growth inhibition IC50, Ramos #1” value is 200 pM of calicheamicin; the “growth inhibition IC50, Ramos #2” value was 260 pM of calicheamicin. In addition, in [10], the “growth inhibition IC50, Daudi #1” value is 0.32 µg/mL of antibody; the “growth inhibition IC50, RL #1” value was 0.09 µg/mL of antibody; the “growth inhibition IC50, RL #2” value is 0.18 µg/mL of antibody; the “growth inhibition IC50, Raji #1” value was 7.69 µg/mL of antibody. Further, in [10], the “growth inhibition IC50, Raji #2” value is 8.62 µg/mL of antibody; the “growth inhibition IC50, Ramos #1” value was 3.08 µg/mL of antibody; the “growth inhibition IC50, Ramos #2” value is 4 µg/mL of antibody.
